target: human complement receptor 3 (CR3) on CR3-transfected CHO cells (CHO/CR3) (human) (UniProt P11215); experiment: flow cytometry on cells

Sequence of fH SCRs 18–20 fused to the Fc fragment of murine IgG2a (Fc fusion) (P08603 19-1231): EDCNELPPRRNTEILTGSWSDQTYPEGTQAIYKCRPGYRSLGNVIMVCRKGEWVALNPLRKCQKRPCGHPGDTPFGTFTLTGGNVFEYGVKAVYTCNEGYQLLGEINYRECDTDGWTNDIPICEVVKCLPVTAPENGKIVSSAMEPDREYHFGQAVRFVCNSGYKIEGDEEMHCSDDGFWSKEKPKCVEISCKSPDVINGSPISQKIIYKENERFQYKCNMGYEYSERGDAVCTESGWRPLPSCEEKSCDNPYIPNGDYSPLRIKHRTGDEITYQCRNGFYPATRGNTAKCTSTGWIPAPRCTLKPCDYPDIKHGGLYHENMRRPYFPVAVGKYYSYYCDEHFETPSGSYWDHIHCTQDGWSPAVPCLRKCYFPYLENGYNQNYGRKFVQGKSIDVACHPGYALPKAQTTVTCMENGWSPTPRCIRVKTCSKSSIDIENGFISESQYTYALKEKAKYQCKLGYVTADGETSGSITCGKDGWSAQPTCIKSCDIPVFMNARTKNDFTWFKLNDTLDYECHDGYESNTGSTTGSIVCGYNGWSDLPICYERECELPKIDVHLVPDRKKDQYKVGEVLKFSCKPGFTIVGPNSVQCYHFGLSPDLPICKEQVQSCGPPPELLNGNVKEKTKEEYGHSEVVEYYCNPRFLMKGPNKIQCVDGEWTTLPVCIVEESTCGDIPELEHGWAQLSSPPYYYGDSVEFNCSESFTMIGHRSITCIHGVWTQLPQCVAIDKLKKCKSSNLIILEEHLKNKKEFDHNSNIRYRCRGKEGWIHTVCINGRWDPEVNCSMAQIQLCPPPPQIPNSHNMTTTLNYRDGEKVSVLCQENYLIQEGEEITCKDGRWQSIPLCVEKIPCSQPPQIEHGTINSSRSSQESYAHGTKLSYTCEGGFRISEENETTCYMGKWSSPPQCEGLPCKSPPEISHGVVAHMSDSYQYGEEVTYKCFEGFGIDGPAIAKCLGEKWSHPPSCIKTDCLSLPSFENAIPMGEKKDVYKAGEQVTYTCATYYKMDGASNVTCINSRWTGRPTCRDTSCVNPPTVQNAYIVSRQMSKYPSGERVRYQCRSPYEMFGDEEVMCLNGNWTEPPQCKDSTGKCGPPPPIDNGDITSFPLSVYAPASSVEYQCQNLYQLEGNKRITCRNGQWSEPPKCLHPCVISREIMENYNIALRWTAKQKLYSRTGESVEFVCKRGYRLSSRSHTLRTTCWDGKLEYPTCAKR
Sequence of fH SCRs 16–20 fused to the Fc fragment of murine IgG2a (Fc fusion) (P08603 19-1231): as above
Sequence of fH SCRs 6–10 fused to the Fc fragment of murine IgG2a (Fc fusion) (P08603 19-1231): as above

Row | Substance | fold increase in fluorescence over control levels
1 | fH SCRs 16–20 fused to the Fc fragment of murine IgG2a (Fc fusion) | 15 fold
2 | fH SCRs 18–20 fused to the Fc fragment of murine IgG2a (Fc fusion) | 30 fold
3 | fH SCRs 6–10 fused to the Fc fragment of murine IgG2a (Fc fusion) | 3 fold

From publication PMC2944003
